Our source for the Kd values is patent US20200292534A1.

Targets include VT; AA; VA.
Assay in all cases: luminescence complementation
Holding throughout (settings): chains peptide; modification not given

Another assay has as its target T1, NLpoly 5P.
T1 chain: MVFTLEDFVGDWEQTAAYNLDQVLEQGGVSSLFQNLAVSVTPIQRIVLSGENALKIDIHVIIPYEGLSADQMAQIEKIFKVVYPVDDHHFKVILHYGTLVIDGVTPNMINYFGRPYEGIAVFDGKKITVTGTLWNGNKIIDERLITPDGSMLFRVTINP

The target in another assay is T2, ATG.
T2 chain: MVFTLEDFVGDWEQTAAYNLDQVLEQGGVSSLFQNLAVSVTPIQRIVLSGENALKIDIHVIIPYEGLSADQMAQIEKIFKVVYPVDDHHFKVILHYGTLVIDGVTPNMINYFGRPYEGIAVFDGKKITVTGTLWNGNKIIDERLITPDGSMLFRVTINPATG

Another assay deals with T3, VTG.
T3 chain: T2 chain with A160V

A further assay has as its target T4, GTA.
T4 chain: T2 chain with A160G, G162A

Substitutions are numbered along the chain they refer to.

GWRLFKKISN [NLpep82]: the equilibrium dissociation constant (Kd) was 215 nM in the assay with NLpoly 5P, 230 nM with ATG, 276 nM with VTG and 254 nM with GTA.

Turning to SGWRLFKKISN [NLpep81], the Kd in the assay with VT came to 137 nM; in the assay with NLpoly 5P, 110 nM; with AA, 115 nM; with VA it was 132 nM.
